Measurements published in patent US20080124335A1 (NATIONAL CEREBRAL AND CARDIOVASCULAR CENTER, published 2008).
No end group written: not given here.

Tests used:
[1] = target: T1, human FM-3 (human, UniProt Q9HB89 24-426); assay: cell-based or functional assay
T1 sequence: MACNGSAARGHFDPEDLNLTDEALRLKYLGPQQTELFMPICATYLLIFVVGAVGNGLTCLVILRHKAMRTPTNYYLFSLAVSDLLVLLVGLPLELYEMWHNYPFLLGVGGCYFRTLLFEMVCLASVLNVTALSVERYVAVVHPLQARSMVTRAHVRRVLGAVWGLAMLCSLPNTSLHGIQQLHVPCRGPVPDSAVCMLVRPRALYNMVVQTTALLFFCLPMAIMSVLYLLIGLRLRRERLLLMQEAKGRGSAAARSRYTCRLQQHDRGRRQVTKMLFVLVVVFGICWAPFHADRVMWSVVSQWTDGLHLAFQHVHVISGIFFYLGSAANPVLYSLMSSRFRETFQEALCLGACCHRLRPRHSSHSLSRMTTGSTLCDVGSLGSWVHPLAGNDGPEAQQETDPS

[2] = target: T2, human TGR1 (human, UniProt Q9GZQ4 1-415); assay: cell-based or functional assay
T2 sequence (Q9GZQ4 other isoform, or with tags, fused parts or gaps): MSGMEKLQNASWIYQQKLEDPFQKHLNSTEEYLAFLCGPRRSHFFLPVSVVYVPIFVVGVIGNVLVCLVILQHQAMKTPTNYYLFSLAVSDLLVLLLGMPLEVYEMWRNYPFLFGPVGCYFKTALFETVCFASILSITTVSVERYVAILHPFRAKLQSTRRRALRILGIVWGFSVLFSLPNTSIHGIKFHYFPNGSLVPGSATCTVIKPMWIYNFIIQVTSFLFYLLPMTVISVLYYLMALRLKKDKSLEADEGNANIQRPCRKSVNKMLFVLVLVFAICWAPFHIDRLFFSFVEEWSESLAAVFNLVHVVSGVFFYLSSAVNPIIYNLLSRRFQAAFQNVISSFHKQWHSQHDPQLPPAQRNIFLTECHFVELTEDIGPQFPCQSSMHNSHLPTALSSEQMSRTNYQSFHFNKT

[3] = target: T1, human FM-3; assay: radioligand competition: crude membrane fraction (10 µg) of CHO cells expressing human FM-3, 50 pM [^125I-Tyr^0]-NMS, filtration
Method: (§1) The receptor binding test was conducted by an improvement of the Gottschall, et al. method (Gottschall, P. E., et al., Endocrinology, 127, 272, 1990). A crude cell membrane fraction was prepared from human FM-3 or human TGR1-expressed CHO cells. Also, human NMS ([Tyr⁰]-NMS) added with Tyr at the N terminus was radioactively labeled with ¹²⁵I and then purified on HPLC. The crude cell membrane fraction (10 μg) and the radiolabeled peptide (50 pM) were reacted at room temperature for 2 hours in a buffer supplemented with 0.05% CHAPS and 1% BSA in the presence of a competitive peptide. The reaction product was filtered to separate the bound from the unbound radiolabeled peptide. The radioactivity was measured with a TopCount liquid scintillation counter (Packard).

[4] = target: T2, human TGR1; assay: radioligand competition: crude membrane fraction (10 µg) of CHO cells expressing human TGR1, 50 pM [^125I-Tyr^0]-NMS, filtration
Method: as §1

Binder: ILQRGSGTAAVDFTKKDHTATWGRPFFLFRPRN (ends and bridges not checked, also called human NMS; NMS) [human neuromedin S]
- intracellular Ca ion level increase (calcium-mobilization assay, FLIPR), EC50 [1]: 65 pM
- intracellular Ca ion level increase (calcium-mobilization assay, FLIPR), EC50 [2]: 91 pM
- IC50 [3]: 1.2 nM
- IC50 [4]: 0.1 nM
